From patent US20230212266A1 (FRED HUTCHINSON CANCER CENTER, published 2023) come the findings set out here.

Residue numbers refer to the chain shown, from its start.

In assay [1] the target is T1, SARS-CoV-2 receptor binding domain (RBD) (SARS-CoV-2, UniProt P0DTC2 319-591). The assay is described as follows: BLI: mAb on anti-human Fc probe, dipped in the antigen.
The target in assay [2] is T1, SARS-CoV-2 receptor binding domain (RBD). The assay can be described thus: BLI; mAb loaded on anti-human Fc probe, dipped in antigen. (In general: In BLI a coated tip is dipped into the sample, and binding shifts an interference pattern.)
For assay [3] the target is unchanged. The assay can be described thus: BLI: mAb on anti-human Fc probe, dipped in the antigen. The source holds these as a separate data set.
Assay [4] has the same target. Described as above. This is another data set of the same source.
Assay [5] shares this target. Described as above. The source holds these as a separate data set.
Assay [6] shares this target. Described as above. The source holds these as a separate data set.
The target is the same in assay [7]. The assay is described as follows: BLI, mAb on anti-human Fc probe, antigen in solution.
For assay [8] the target is unchanged. Described as above. This is another data set of the same source.
Assay [9] shares this target. The assay can be described thus: BLI: mAb on anti-human Fc probe, dipped in the antigen. The source holds these as a separate data set.
The target is the same in assay [10]. The description is as above. This is another data set of the same source.
The target is the same in assay [11]. The assay is described as above. The source holds these as a separate data set.

B1: CV2-52 (antibody, V domains shown)
VH: QVQLVESGGGVVQPGRSLRLSCAASGFTFSSYAMHWVRQAPGKGLEWVAVISYDGINKYYADSVKGRFTISRDSSKNTLYLQMNSLRAEDTAVYYCARGGVGYQLLFGNDWFDPWGQGTLVTVSS
VL: QSALTQPASVSGSPGQSITISCTGTSSDVGGYNYVSWYQQHPGKAPKLMIYEVSNRPSGVSNRFSGSKSGNTASLTISGLQAEDESDYYCSSYTTSSTLYVFGTGTKVTVL
For B1, the binding result in [1] is recorded as “no binding”.

B2: CV5 (antibody, V domains shown)
VH: QVQLVQSGAEVKKPGASVKVTCKASGYTFTSYYLHWVRQAPGQGLEWMGIINPSGGTTSYAQKFQGRVTMTRDTSTSTVYMELSSLRSEDTAVYYCARAGRRYSSSDDGAFDIWGQGTMVTVSS
VL: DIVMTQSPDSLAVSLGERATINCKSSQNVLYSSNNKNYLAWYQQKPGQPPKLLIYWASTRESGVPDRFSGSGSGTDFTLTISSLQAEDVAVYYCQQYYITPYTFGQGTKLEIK
As for B2, the binding result in assay [2] is “binds”.

B3: CV2-56 (antibody, V domains shown)
VH: QVQLVESGGGVVQPGNSLRLSCVASGFKFSSSAMHWVRQAPGKGLEWVAIIWFHGNTKFYGDFVKGRFTVSRDNSNNTLHLQMNSLRAEDTAVYHCARASSDYGGAFDIWGQGTMVTVSS
VL: EIVMTQSPATLSVSLGERATLSCRASQSVTSSLAWYQHKPGQAPRLLIYGASTRATGIPARFSGSGSGTEFTLTISSLQSEDFAVYFCQQYNNWPPWTFGQGTKVEVT
B3: in assay [3], the binding result is listed as “no binding”.

B4: CV43 (antibody, V domains shown)
VH: QVQLVESGGGVVQPGRSLRLSCAASGFTFSSYAMHWVRQAPGKGLEWVAVISYDGSNKYYADSVKGRFTISRDNSKNTLYLQMNSLRAEDTAVYYCARVTVVHFDYWGQGTLVTVSS
VL: NFMLTQPHSVSESPGKTVTISCTGSSGSIASNYVQWYQQRPGSAPTTVIYEDNQRPSGVPDRFSGSIDSSSNSASLTISGLKTEDEADYYCQSYDSSNWVFGGGTKLTVL
Regarding B4, the binding result in [2] is listed as “binds”.

B5: CV2-65 (antibody, V domains shown)
VH: QVQLQESGPGLVKPSETLSLTCTVSGGSISSYYWSWIRQPAGKGLEWIGRIYTSGSTNYNPSLKSRVTMSVDTSKNQFSLKLSSVTAADTAVYYCAREDSYGSGSTGAFDIWGQGTMVTVSS
VL: SYELTQPPSVSVSPGQTARITCSGDALPKQYAYWYQQKPGQAPVLVIYKDSERPSGIPERFSGSSSGTTVTLTISGVQAEDEADYYCQSADSSGTYVFGTGTKVTVL
Turning to B5, the binding result in assay [2] is “binds”.

B6: CV2-7 (antibody, V domains shown)
VH: EVQLVQSGAEVKKPGESLKISCKGSGNSFTSYWIGWVRQMPGKGLEWMGIIYPGDSDTRYSPSFQGQVTISADKSISTAYLQWSSLKASDTAMYYCARHRNYDILTGYRYYFDYWGQGTLVTVSS
VL: not shown
For the molecule B6, the binding result in assay [2] was “binds”.

B7: CV30 (antibody, V domains shown)
VH: EVQLVESGGGLIQPGGSLRLSCAASGVIVSSNYMSWVRQAPGKGLEWVSVIYSGGSTYYADSVKGRFTISRDNSKNTLYLQMNSLRAEDTAVYYCARDLDVSGGMDVWGQGTTVTVSS
VL: not shown
With B7, the binding result in [2] is “binds”.

B8: CV2-75 (antibody, V domains shown)
VH: QVQLQESGPGLVKPSETLSLTCTVSGGSISSYYWSWIRQPPGKGLEWIGYVYYSGSTNYNPSLKSRVTISVDTSKNEFSLKLSSVTAADTAVYYCASSQRPDGNLYYFDYWGQGTLVTVSS
VL: SYVLTQPPSVSVAPGQTARITCGGNNIGSKTVHWYQQKPGQAPVLVVYDDSDRPSGIPERFSGSNSGNTATLTISRVEAGDEADYYCQVWDSSSDHYVFGTGTKVTVL
Turning to B8, the binding result in assay [2] was “binds”.

B9: CV2-41 (antibody, V domains shown)
VH: QVQLQQWGAGLLKPSETLSLTCAVYGGSFSGYYWSWIRQPPGKGLEWIGEINHSGSTNYNPSLKSRVTISVDTSTNQFSLKLSSVTAADTAVYYCARRVHYDILTGFYGGALITRAFDIWGQGTMVTVSS
VL: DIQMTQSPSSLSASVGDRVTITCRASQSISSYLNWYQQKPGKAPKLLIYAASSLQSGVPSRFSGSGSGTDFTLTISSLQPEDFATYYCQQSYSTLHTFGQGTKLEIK
Regarding B9, the binding result in [2] was “binds”.

B10: CV2-48 (antibody, V domains shown)
VH: QLQLQESGPGLVKPSETLSLTCTVSGGSISSSSYYWGWIRQPPGKGLEWIGNIYYSGITYYNPSLKSRVTISVDTSKNQFSLKLSSVTAADTAVYYCARQLWGYYDSSGYYAFDIWGQGTMVTVSS
VL: QSALTQPASVSGSPGQSITISCTGTSSDVGSYNLVSWYQQHPGKAPKLMIYEGSKRPSGVSNRFSGSKSGNTASLTISGLQAEDEAAYYCCSYVGSSTYVVFGGGTKLTVL
Turning to B10, the binding result in assay [4] is “binds”.

B11: CV2-58 (antibody, V domains shown)
VH: QVQLVQSGAEVKKPGSSVKVSCKASGGTFSSYAISWVRQAPGQGLEWMGRIIPILDITNYAQKFQGRVTITADKSTSTAYMELSSLRSEDTAVYYCARGLWRSSIAGLHVPYGMDVWGQGTTVTVSS
VL: QSVLTQPPSVSAAPGQKVTISCSGSSSNIGNNYVSWYQQLPGTAPQLLIYDNNKRPSRIPDRFSGSKSGTSATLGITGLQTGDEAVYYCGTWDSSLSAVVFGGGTKLTVL
Turning to B11, in assay [5], the binding result is “no binding”.

B12: CV2-59 (antibody, V domains shown)
VH: QVQLVQSGAEVKKPGASVKVSCKVSGYTLTELSMHWVRQAPGKGLEWMGGFDPEDGETIYAQKFQGRVTMTEDTSTDTAYMELSSLRSEDTAVYYCATGPTVTTVTNWFDPWGQGTLVTVSS
VL: B11 VL with Q46K, R58G, V86D, V99E, G103T, L107V
Take B12: in assay [6], the binding result was “no binding”.

B13: CV2-66 (antibody, V domains shown)
VH: EVQLVESGGGLVQPGRSLRLSCTASGFTFGDYAMSWFRQAPGKGLEWVGFIRSKAYGGTTEYAASVKGRFTISRDDSKSIAYLQMNSLKTEDTAVYYCTRVHHCSGGSCYGYYFDYWGQGTLVTVSS
VL: EIVMTQSPATLSVSPGERATLSCRASQSVSSNLAWYQQKPGQAPRLLIYGASTRATGIPARFSGSGSGTEFTLTISSLQSEDFAVYYCQQYNNWVTFGGGTKVEIK
With B13, in assay [2], the binding result is reported as “binds”.

B14: CV1 (antibody, V domains shown)
VH: QVQLQESGPGLVKPSETLSLTCTVSGYSISSGYYWGWIRQPPGKGLEWIGSIYHSGSTYYNPSLKSRVTISVDTSKNQFSLKLSSVTAADTAVYYCARTPLSLRLRYNWYFDLWGRGTLVTVSS
VL: not shown
notes: expressed as IgG
As for B14, the binding result in assay [7] is on record as “no binding”.

B15: CV2-71 (antibody, V domains shown)
VH: EVQLLESGGGLGQPGGSLRLSCAASGFTFSNYAMSWVRQAPGKGLEWVSVISGSGGSTYYADSVKGRFTISRDNSKNTLYLQMNSLRAEDTAVYYCAKAGAVGYYDSNGYYYDVDYYYGMDVWGQGTTVTVSS
VL: QSVLTQPPSVSGAPGQRVTISCTGSSSNIGAGYDVHWYQQLPGTAPKLLIYGNSNRPSGVPDRFSGSKSGTSASLAITGLQAEDEADYYCQSYDSSLSGYVFGTGTKVTVL
In the case of B15, the binding result in assay [2] is listed as “binds”.

B16: CV11 (antibody, V domains shown)
VH: QVQLQESGPGLVKPSQTLSLTCTVSGGSISSGGYYWSWIRQHPGKGLEWIGYIYYSGSTYYNPSLKSRVTISVDTSKNQFSLKLSSVTAADTAVYYCARETTGHFDYWGQGTLVTVSS
VL: EIVLTQSPATLSLSPGERATLSCRASQSVSSYLAWYQQKPGQAPRLLIYDASNRATGIPARFSGSGSGTDFTLTISSLEPEDFAVYYCQQRSNWPPIFTFGPGTKVDIK
As for B16, in [8], the binding result is recorded as “no binding”.

B17: CV2-57 (antibody, V domains shown)
VH: QVQLVQSGAEVKKPGASVKVSCKASGYNFISYGISWVRQAPGQGLEWMGWISAYNGNTNYAQKLQGRVTMTTDTSTSTAYMELRSLRSDDTAVYYCARVRIFGVVIIVDTAMVLDYWGQGTLVTVSS
VL: B16 VL with I97R, F98L, P102G, D107E
On to B17, for which the binding result in assay [9] was “no binding”.

B18: CV2-54 (antibody, V domains shown)
VH: QVQLVQSGAEVKKPGSSVKVSCKASGGTFSSYTISWVRQAPGQGLEWMGGIIPIFGTANYAQNFQGRVTITADESTSTAYMELSSLRSEDTAVYYCARVSYYDSSGYYTDYWGQGTLVTVSS
VL: B16 VL with Y32F, S76N, I97E, F98Y, P102Q, V106L, D107E
Turning to B18, in assay [10], the binding result is recorded as “no binding”.

B19: CV2-53 (antibody, V domains shown)
VH: B18 VH with S30T, T33A, S35T, N63K, S100G, Y101A, T109Q, Y111L, Q114R
VL: B16 VL with I97V, F98I, P102Q, K105R, V106L, D107E
As to B19, the binding result in [11] is “no binding”.
